Targets include 2F8-HG-Y275A; 2F8-HG CH3 mutant F273A; 2F8-HG-L236V.
Test in all cases: non-covalent nano-electrospray mass spectrometry at 0.01-10 µM, value at low concentrations; self-association

For the substance 2F8-HG-Y275A (antibody), in the experiment with 2F8-HG-Y275A, the percentage molecules present as monomers is 100%.
Consider 2F8-HG CH3 mutant F273A (antibody), for which the percentage molecules present as monomers with 2F8-HG CH3 mutant F273A was 100%.
As to 2F8-HG-L236V (antibody), the percentage molecules present as monomers in the experiment with 2F8-HG-L236V is 100%.

For the origin of these results see patent US20100255012A1.
